Tested on: B. subtilis peptidoglycan
Experiment: Peptidoglycan binding (pelleting with insoluble peptidoglycan, SDS-PAGE/Coomassie)
Set-up: species or system Bacillus subtilis
Conditions: for binding to cell wall (result in words): his6-tagged extracellular domain
From the text: Peptidoglycan Binding. The C-terminal fragment of PrkC (His6-PASTABs) composed of residues 357-648 was purified using Ni^2+ affinity chromatography with an E. coli strain carrying pIMS40 that overproduces His6-PASTABs. His6-Yycl composed of residues 31-280 was purified using identical methodology using an E. coli strain carrying pIMS36. His6-AcmA composed of residues 243-439 using an E. coli strain carrying pIMS42 and His6-PASTASa composed of residues 378-644 using an E. coli strain carrying pIMS44 were purified using identical methodology. 50 μg of proteins was separately incubated with purified B. subtilis or S. aureus peptidoglycan (˜5 mg) in 20 mM Tris-HCl, 50 mM MgCl2, 500 mM NaCl for 30 min at 4° C. Centrifugation (10 min, 15 k) was employed to remove the supernatant (soluble fraction) and the pellet was washed twice, then resuspended it in 2% SDS and incubated at RT for 1 h. Bound fraction (insoluble fraction) was recovered by removing the […] by centrifugation. Fractions consisting of unbound soluble protein and insoluble bound protein, and the wash were analyzed by SDS-PAGE. The gels were stained with Coomassie blue and the differences in the amounts of His6-PASTA in the two fractions were determined by measurement of the appropriate bands using ImageJ (NIH).

B1: His6-PASTABs: His-tagged C-terminal extracellular fragment of B. subtilis PrkC, residues 357-648, three PASTA repeats (protein)
chain: MLIGKRISGRYQILRVIGGGGMANVYLAEDIILDREVAIKILRFDYANDNEFIRRFRREAQSASSLDHPNIVSIYDLGEEDDIYYIVMEYVEGMTLKEYITANGPLHPKEALNIMEQIVSAIAHAHQNQIVHRDIKPHNILIDHMGNIKVTDFGIATALSSTTITHTNSVLGSVHYLSPEQARGGLATKKSDIYALGIVLFELLTGRIPFDGESAVSIALKHLQAETPSAKRWNPSVPQSVENIILKATAKDPFHRYETAEDMEADIKTAFDADRLNEKRFTIQEDEEMTKAIPIIKDEELAKAAGEKEAEVTTAQENKTKKNGKRKKWPWVLLTICLVFITAGILAVTVFPSLFMPKDVKIPDVSGMEYEKAAGLLEKEGLQVDSEVLEISDEKIEEGLMVKTDPKADTTVKEGATVTLYKSTGKAKTEIGDVTGQTVDQAKKALKDQGFNHVTVNEVNDEKNAGTVIDQNPSAGTELVPSEDQVKLTVSIGPEDITLRDLKTYSKEAASGYLEDNGLKLVEKEAYSDDVPEGQVVKQKPAAGTAVKPGNEVEVTFSLGPEKKPAKTVKEKVKIPYEPENEGDELQVQIAVDDADHSISDTYEEFKIKEPTERTIELKIEPGQKGYYQVMVNNKVVSYKTIEYPKDE
- % of total protein associated with the insoluble (peptidoglycan-bound) fraction (50 μg protein, ˜5 mg purified peptidoglycan): Approximately 40%
- binding to cell wall (result in words): binds to cell wall much better than Yycl
- binding to cell wall (result in words) (listed as extracellular domain of PrkC): bound to cell wall much better than a control protein
